Experimental data taken from US20220389077A1, “ALLOGENEIC CELL COMPOSITIONS AND METHODS OF USE” (Poseida Therapeutics, Inc., priority 2018, published 2022).

How the values were obtained:
human CD48 = biological target: T1, human CD48 (Homo sapiens, UniProt P09326); assay: T cell degranulation (CD107a) against cells overexpressing CD48; assay type: cell-based; details: 4-6 hours coculture; K562 or Rat2 cells
T1 construct: expressed in transfected cells; host or cells: K562 or Rat2 cells, electroporated/lipofected with mRNA
T1 sequence (P09326 27-220): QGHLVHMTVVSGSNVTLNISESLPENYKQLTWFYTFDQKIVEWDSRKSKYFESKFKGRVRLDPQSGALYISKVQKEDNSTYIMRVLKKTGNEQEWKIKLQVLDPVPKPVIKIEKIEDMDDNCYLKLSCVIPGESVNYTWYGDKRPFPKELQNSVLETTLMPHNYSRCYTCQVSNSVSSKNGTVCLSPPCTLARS
Method: FIG. 23D is a series of flow cytometry plots showing the expression of CD48, CD58 or CD59 on K562 and Rat2 cells. To confirm possible ligands for the CSR WT CD2z molecule, a panel of known and suspected ligands including human CD48, CD58, and CD59 were tested. Degranulation of engineered T cells was evaluated against the cell lines K562 and Rat2 that were made to overexpress the target ligands and confirmed for expression by FACS staining. Red histograms are unstained cells and blue histograms are cells that were electroporated/lipofected with mRNA and then stained for expression of the respective marker by FACS.
FIG. 23E is a bar graph showing that CSR CD2z recognizes human CD58, but not CD48 or CD59. To confirm possible ligands for the CSR WT CD2z molecule, a panel of known and suspected ligands including human CD48, CD58, and CD59 were tested. Degranulation of engineered T cells was evaluated against the cell lines K562 and Rat2 that were made to overexpress the target ligands and confirmed for expression by FACS staining. Cells were electroporated/lipofected with mRNA and then stained for expression of the respective marker by FACS. […] T cell degranulation is a surrogate of T cell killing that can be measured by FACS staining for intracellular CD107a expression following coculture with target cell lines expressing target antigen. […]

Allo CAR-T cells = assay: Expansion of Allo CAR-T cells with WT or mutant (D111H) CSR CD2z; assay type: cell-based, human; details: up to 15-day culture; CSR stable or transient
Description: FIG. 24A is a bar graph showing that the delivery of CSR CD2z-D111H mutant enhances the expansion of Allo CAR-T cells. Pan T cells isolated from healthy donor blood were genetically modified using the piggyBac® DNA modification system in combination with the Cas-CLOVER™ gene-editing system (CC) for the production of allogeneic (Allo) CAR-T cells, or without CC gene-editing, as a control, for the production of autologous (Auto) CAR-T without a CSR (No CSR); auto CAR-T cells were produced by nucleofection of an mRNA encoding the super piggyBac™ transposase enzyme (SPB) and a transposon encoding a CAR, selection gene and a safety switch. […] Following EP, all cells were subsequently stimulated with a cocktail of agonist mAbs anti-CD2, anti-CD3 and anti-CD28, and were later selected for genetic modification over the course of up to a 15-day culture period using the selection gene. At the end of the initial culture period, all T cells expressed the CAR, indicating successful selection for genetically-modified cells (data not shown), and then all non-edited TCR-positive cells were depleted via negative selection to yield a population of Allo CAR-T cells that were >99% TCR-negative (data not shown).

TCRb and b2M = assay: Gene editing (knockout of TCR and MHCI) of Allo CAR-T cells with CSR; assay type: cell-based, human; details: up to 14-day culture; CSR stable or transient
Description: Pan T cells isolated from healthy donor blood were genetically modified using the piggyBac® DNA modification system in combination with the Cas-CLOVER™ gene-editing system (CC) to produce allogeneic (Allo) CAR-T cells. […] Following EP, all cells were subsequently stimulated with a cocktail of agonist mAbs anti-CD2, anti-CD3 and anti-CD28, and were later selected for genetic modification over the course of up to a 14-day culture period using the selection gene. At the end of the initial culture period, all T cells expressed the CAR, indicating successful selection for genetically-modified cells (data not shown). All samples were performed in duplicate, and data is shown in bar graph where error bars represent standard deviation.

degranulation (CD107a) against CD48 (human CD48): not against human CD48 or CD59
B1: CD2z CSR: chimeric stimulatory receptor: CD2 signal peptide, extracellular, transmembrane and cytoplasmic domains with CD3z intracellular domain (SEQ ID NO: 17062) (protein)
chain: MSFPCKFVASFLLIFNVSSKGAVSKEITNALETWGALGQDINLDIPSFQMSDDIDDIKWEKTSDKKKIAQFRKEKETFKEKDTYKLFKNGTLKIKHLKTDDQDIYKVSIYDTKGKNVLEKIFDLKIQERVSKPKISWTCINTTLTCEVMNGTDPELNLYQDGKHLKLSQRVITHKWTTSLSAKFKCTAGNKVSKESSVEPVSCPEKGLDIYLIIGICGGGSLLMVFVALLVFYITKRKKQRSRRNDEELETRAHRVATEERGRKPHQIPASTPQNPATSQHPPPPPGHRSQAPSHRPPPPGHRVQHQPQKRPPAPSGTQVHQQKGPPLPRPRVQPKPPHGAAENSLSPSSNRVKFSRSADAPAYKQGQNQLYNELNLGRREEYDVLDKRRGRDPEMGGKPRRKNPQEGLYNELQKDKMAEAYSEIGMKGERRRGKGHDGLYQGLSTATKDTYDALHMQALPPR
peak expansion of Allo CAR-T cells compared to Allo CAR-T cells produced without a CSR (Allo CAR-T cells): a greater degree of expansion | degree of gene editing compared to Allo CAR-T cells produced without a CSR (TCRb and b2M): a similar or greater degree of gene editing
